These are literature values, as cited in publication PMC3798119.

For orientation: Kd means the constant that tells how readily two partners part at equilibrium.

This data set deals with basigin (CD147) (Homo sapiens) (UniProt P35613).
UniProt P35613, sequence (P35613 22-325): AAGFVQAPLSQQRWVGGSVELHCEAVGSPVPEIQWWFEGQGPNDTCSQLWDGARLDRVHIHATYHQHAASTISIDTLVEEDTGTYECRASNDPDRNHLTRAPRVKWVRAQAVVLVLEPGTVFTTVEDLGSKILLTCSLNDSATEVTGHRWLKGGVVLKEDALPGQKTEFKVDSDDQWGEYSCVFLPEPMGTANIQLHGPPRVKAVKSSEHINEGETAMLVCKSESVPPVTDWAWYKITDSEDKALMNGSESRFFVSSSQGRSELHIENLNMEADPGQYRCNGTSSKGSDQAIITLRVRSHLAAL

In the case of RH5 (from UniProt Q8IFM5), the Kd was 1.1 µM.
